Source: patent US20060269542A1, “Immunoliposome composition for targeting to a HER2 cell receptor” (priority 2005, published 2006)
In brackets after ≈: the same amount, converted by molar mass. One block for each molecule: values may come before it.

Assays:
[1] = test system: SK-BR-3 human breast carcinoma cells; assay: cells; type: cell-based; conditions: 10-min exposure, then 72 hours growth, read-out: IC50 (doxorubicin concentration resulting in 50% cell growth inhibition)
Method: SK-BR-3 human breast carcinoma cell line was purchased from American Tissue Type Culture Collection (ATCC, Manassas, Va.). Cells were maintained in in vitro culture in McCoy's 5A modified medium supplemented with 10% fatal bovine serum and were maintained in a humidified incubator at 37° C.
Cells were exposed for 10 minutes to doxorubicin (1.8 mg/mL) in free form, doxorubicin entrapped in PEGylated liposomes (2.06 mg/mL), or an immunoliposome formulation having 2 antibodies per liposome (1.86 mg/mL), 5 antibodies per liposome (2.12 mg/mL), 7.5 antibodies per liposome (1.99 mg/mL), or 15 antibodies per liposome (2 mg/mL).
Log-phase SK-BR-3 breast cancer cells were harvested using Versene (1:5000), resuspended in growth media at concentration of 5×10^4 cells/mL. […] At the end of incubation, the amount of viable cells was determined using the Promega CellTiter 96® Aqueous One Solution Cell Proliferation Assay (a tetrazolium based colorimetric method for determining the number of viable cells in proliferation, Madison, Wis.). […] The plates were then incubated for 3-4 hours after which absorbance was recorded at 490 nm with a microplate reader. Cell viability was calculated as % of untreated control using the formula: % Viability=(A−A0)/(A100−A0)×100% where A is the measured absorbance, A0 is the absorbance of the blanks, and A100 is the absorbance of the wells with untreated cells. […]

[2] = target: T1, HER2 receptor (human, UniProt P04626 23-1255); assay: cell-based or functional assay
[3] = target: T1, HER2 receptor; assay: 4 h incubation of immunoliposomes with SK-BR-3 cells (IHC 3+), wash, lysis, doxorubicin fluorescence
Method: SK-BR-3 or MCF-7 cells at 1.5×10⁵ cells/0.5 mL of growth medium per well were added to a 24-well plate. After overnight incubation for attachment and acclimation, cells were treated with immunoliposomes ([…], 15:1, 30:1, and 45:1 anti-HER2 antibodies:liposome), or liposomes at 0.015 mg/mL in 0.5 mL growth media/well in duplicates. The 24-well plates were then placed on a rotating platform inside the incubator with rotation at 40-60 rpm at 37° C., 5% CO₂, and 100% humidity for 4 hours. After incubation, cell medium were aspirated and cells were washed four times with Hank's Balanced Salt Solution (HBSS). After this, cells were lysed by adding 0.1 mL of 1% Triton X-100 to each well. The plates were swirled to mix and placed on a rotating platform for 15 minutes at room temperature. During this step, cells detached from the bottom of the plate and the cell nuclei formed visible clumps. Acid isopropanol (1.0 mL) were added to the wells containing the Triton X-100 solution and mixed by swirling or pipetting up and down until the visible clumps disappeared.
Doxorubicin content in the cell lysates was measured by a spectrofluorometer using an excitation wavelength of 470 nm and an emission wavelength of 590 nm. The spectrofluorometer settings were as follows: slit width 2 nm, integration time 1 second, photomultiplier voltage 950 V, and single wavelength acquisition mode. Fluorescence of the background cell lysate was subtracted and the amount of doxorubicin in the cell lysates was determined from the concurrently measured standards (10, 25, 50, 100, 250, 500, 1000, and 2500 ng of doxorubicin per sample) fit to a standard curve using quadratic polynomial regression. Cell uptake of doxorubicin was determined by interpolation from the standard curve.

[4] = target: extracellular domain of HER2 receptor (Homo sapiens, UniProt P04626); conditions: read-out: HER2 binding affinity (Kd); cited from earlier work

B1: anti-Her2 immunoliposome formulation with scFv/liposome ratio of 5 (scFv)
scFv: QVQLVESGGGLVQPGGSLRLSCAASGFTFRSYAMSWVRQAPGKGLEWVSAISGRGDNTYYADSVKGRFTISRDNSKNTLYLQMNSLRAEDTAVYYCAKMTSNAFAFDYWGQGTLVTVSSGGGGSGGGGSGGGGSQSVLTQPPSVSGAPGQRVTISCTGSSSNIGAGYGVHWYQQLPGTAPKLLIYGNTNRPSGVPDRFSGFKSGTSASLAITGLQAEDEADYYCQSYDSSLSGWVFGGGTKLTVLG
modifications: terminal cysteine coupled through a thioether linkage to maleimide-PEG-DSPE
IC50 (cytotoxicity, SK-BR-3 cells, 10-min exposure, doxorubicin concentration) [2]: ~30 µg/mL

B2: Anti-HER2 Immunoliposomes (7.5:1) (scFv)
scFv: B1 scFv
modifications: terminal cysteine coupled through a thioether linkage to maleimide-PEG-DSPE
notes: On average 7.5 scFv per liposome; also called 7.5:1 immunoliposome formulation; immunoliposomes containing 7.5 antibodies per liposome
Doxorubicin (pg/cell), cellular binding/uptake [3]: 6.02 pg/cell
IC50 (cytotoxicity, SK-BR-3 cells, 10-min exposure, doxorubicin concentration) [2]: ~16 µg/mL

B6: F5: single chain antibody fragment (scFv), 251 amino acids, binds extracellular domain of HER2 receptor, SEQ ID NO: 2 (protein, listed as Homo sapiens)
scFv: B1 scFv
Kd [4]: 150 to 300 nM

More lines, main results first:

IC50 [1]: ~9.5 µg/mL (≈ 17.5 µM)
Molecule: COc1cccc2c1C(=O)c1c(O)c3c(c(O)c1C2=O)C[C@@](O)(C(=O)CO)C[C@@H]3O[C@H]1C[C@H](N)[C@H](O)[C@H](C)O1 [free doxorubicin, doxorubicin]

Doxorubicin (pg/cell), cellular binding/uptake [3]: 8.35 pg/cell
B3: Anti-HER2 Immunoliposomes (15:1) (scFv)
scFv: B1 scFv
modifications: terminal cysteine coupled through a thioether linkage to maleimide-PEG-DSPE
notes: On average 15 scFv per liposome; also called 15:1 immunoliposome formulation; immunoliposomes with 15 antibodies per liposome
IC50 (cytotoxicity, SK-BR-3 cells, 10-min exposure, doxorubicin concentration) [2]: ~3.9 µg/mL

Doxorubicin (pg/cell), cellular binding/uptake [3]: 4.39 pg/cell
B4: Anti-HER2 Immunoliposomes (45:1) (scFv)
scFv: B1 scFv
modifications: terminal cysteine coupled through a thioether linkage to maleimide-PEG-DSPE
notes: On average 45 scFv per liposome; also called 45:1 immunoliposome formulation; F5 scFv immunoliposome

Doxorubicin (pg/cell), cellular binding/uptake [3]: 6.66 pg/cell
B5: Anti-HER2 Immunoliposomes (30:1) (scFv)
scFv: B1 scFv
modifications: terminal cysteine coupled through a thioether linkage to maleimide-PEG-DSPE
notes: On average 30 scFv per liposome; also called 30:1 immunoliposome formulation; F5 scFv immunoliposome
